# Results taken from US20200040059A1.
# How the values were obtained:
# CD28 (human) [1] = target: CD28 (human) (UniProt P10747); assay: flow cytometry on HEK293 cells transfected with CD28
# CTLA4 (human) [2] = target: CTLA4 (human) (UniProt P16410); assay: flow cytometry on HEK293 cells transfected with CTLA4
# PD-L1 (human) [3] = target: PD-L1 (human) (UniProt Q9NZQ7); assay: flow cytometry on HEK293 cells transfected with PD-L1
# CTLA4 (human) [4] = target: CTLA4 (human) (UniProt P16410); assay: flow cytometry, MFI on CTLA4 cells over MFI on CD28 cells
# [5] = target: CD112R (full length, expressed on transfected cells) (human) (UniProt Q6DKI7); assay: flow cytometry on cells expressing the target, 20 nM
# Chain of CD112R (full length, expressed on transfected cells) (human) (Q6DKI7 whole entry): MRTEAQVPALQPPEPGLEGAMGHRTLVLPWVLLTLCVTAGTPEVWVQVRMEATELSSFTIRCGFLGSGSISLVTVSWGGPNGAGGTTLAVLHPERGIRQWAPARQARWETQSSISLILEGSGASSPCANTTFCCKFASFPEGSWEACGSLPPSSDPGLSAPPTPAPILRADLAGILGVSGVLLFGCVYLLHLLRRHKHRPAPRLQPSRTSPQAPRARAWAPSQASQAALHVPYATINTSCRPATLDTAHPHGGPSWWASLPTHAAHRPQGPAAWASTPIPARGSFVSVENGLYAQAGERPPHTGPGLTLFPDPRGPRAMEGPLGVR
# [6] = target: T1, CD96 (expressed on cells) (UniProt P40200); assay: as above
# T1 sequence (looked up): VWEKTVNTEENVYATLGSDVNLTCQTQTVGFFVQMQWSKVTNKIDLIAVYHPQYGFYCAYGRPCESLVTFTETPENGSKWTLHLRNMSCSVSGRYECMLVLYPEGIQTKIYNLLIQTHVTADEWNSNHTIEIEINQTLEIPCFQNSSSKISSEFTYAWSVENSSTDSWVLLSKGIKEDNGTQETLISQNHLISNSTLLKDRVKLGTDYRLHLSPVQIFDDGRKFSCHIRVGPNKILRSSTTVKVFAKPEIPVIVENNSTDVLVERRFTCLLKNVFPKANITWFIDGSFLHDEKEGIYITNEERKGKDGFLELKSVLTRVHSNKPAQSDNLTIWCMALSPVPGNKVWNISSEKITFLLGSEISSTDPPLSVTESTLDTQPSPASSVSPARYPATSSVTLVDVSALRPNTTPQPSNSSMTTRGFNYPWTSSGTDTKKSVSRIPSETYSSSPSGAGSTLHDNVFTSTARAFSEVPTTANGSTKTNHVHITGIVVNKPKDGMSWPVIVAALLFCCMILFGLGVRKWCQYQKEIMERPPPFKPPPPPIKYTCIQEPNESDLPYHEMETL
# TIGIT (human) [7] = target: T2, TIGIT (human) (UniProt Q495A1); assay: flow cytometry on TIGIT-expressing cells
# T2 sequence: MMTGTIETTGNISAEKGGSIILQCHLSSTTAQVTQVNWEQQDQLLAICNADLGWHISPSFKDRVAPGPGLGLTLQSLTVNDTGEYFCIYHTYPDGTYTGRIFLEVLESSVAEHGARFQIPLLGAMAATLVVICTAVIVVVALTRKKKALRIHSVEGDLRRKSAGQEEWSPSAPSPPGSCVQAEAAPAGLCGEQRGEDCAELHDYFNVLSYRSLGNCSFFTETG
# [8] = target: human CD112R, full length, expressed on transfected Expi293 cells (human) (UniProt Q6DKI7); assay: flow cytometry, Expi293 cells transfected with full-length human CD112R
# Chain of human CD112R, full length, expressed on transfected Expi293 cells (human) (Q6DKI7 whole entry): as the sequence (Q6DKI7 whole entry) above
# CD226 (human) [9] = target: T3, CD226 (human) (UniProt Q15762); assay: flow cytometry on CD226-expressing cells
# T3 sequence: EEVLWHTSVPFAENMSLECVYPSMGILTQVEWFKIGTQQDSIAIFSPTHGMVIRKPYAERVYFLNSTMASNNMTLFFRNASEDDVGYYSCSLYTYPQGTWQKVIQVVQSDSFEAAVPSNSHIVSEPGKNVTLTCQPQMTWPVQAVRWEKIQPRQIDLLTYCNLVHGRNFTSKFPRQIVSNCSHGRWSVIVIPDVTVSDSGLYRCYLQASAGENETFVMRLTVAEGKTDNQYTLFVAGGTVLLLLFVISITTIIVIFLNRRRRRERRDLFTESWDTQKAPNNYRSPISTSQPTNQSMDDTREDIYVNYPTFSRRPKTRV
# CD96 [10] = target: T4, CD96 (UniProt P40200); assay: flow cytometry on CD96-expressing cells
# T4 sequence (looked up): T1 sequence (looked up)
# CD96 [11] = target: T4, CD96; assay: flow cytometry, cells
# CD226 (human) [12] = target: T3, CD226 (human); assay: flow cytometry, transfected cells
# TIGIT (human) [13] = target: T2, TIGIT (human); assay: flow cytometry, transfected cells
# CD28 (human) [14] = target: CD28 (human) (UniProt P10747); assay: flow cytometry; MFI vs m14
# human B7-H6 (human) [15] = target: human B7-H6 (human) (UniProt Q68D85); assay: flow cytometry; MFI vs m14
# Chain of human B7-H6 (human) (Q68D85 25-454): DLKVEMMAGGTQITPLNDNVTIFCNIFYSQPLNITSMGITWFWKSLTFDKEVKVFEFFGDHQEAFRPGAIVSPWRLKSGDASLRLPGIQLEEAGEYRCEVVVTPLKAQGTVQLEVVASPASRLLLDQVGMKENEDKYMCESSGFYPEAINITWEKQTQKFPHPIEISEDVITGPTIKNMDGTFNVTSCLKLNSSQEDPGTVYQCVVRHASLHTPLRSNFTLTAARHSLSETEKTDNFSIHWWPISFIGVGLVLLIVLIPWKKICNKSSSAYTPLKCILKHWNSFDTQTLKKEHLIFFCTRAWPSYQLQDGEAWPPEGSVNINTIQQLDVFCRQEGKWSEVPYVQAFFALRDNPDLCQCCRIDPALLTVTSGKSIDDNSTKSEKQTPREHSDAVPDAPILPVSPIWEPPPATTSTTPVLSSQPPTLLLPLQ
# CD28 (human) [16] = target: CD28 (human) (UniProt P10747); assay: flow cytometry, transfected cells
# human B7-H6 (human) [17] = target: human B7-H6 (human) (UniProt Q68D85); assay: flow cytometry, transfected cells
# CD28 (human) [18] = target: CD28 (human) (UniProt P10747); assay: flow cytometry; MFI vs m21
# PD-L1 (human) [19] = target: PD-L1 (human) (UniProt Q9NZQ7); assay: flow cytometry; MFI vs m21
# PD-L1 (human) [20] = target: PD-L1 (human) (UniProt Q9NZQ7); assay: flow cytometry, transfected cells
# CTLA4 (human) [21] = target: CTLA4 (human) (UniProt P16410); assay: flow cytometry, transfected cells
# human B7-H6 (human) [22] = target: human B7-H6 (human) (UniProt Q68D85); assay: flow cytometry; MFI vs m9
# human B7-H6 (human) [23] = target: human B7-H6 (human) (UniProt Q68D85); assay: flow cytometry; MFI vs m10
# [24] = target: human ICOS as used for the 'ICOS OD' read-out of Table 14 (human); assay: binding read as OD; format not described
# Chain of human ICOS as used for the 'ICOS OD' read-out of Table 14 (human) (Q9Y6W8 whole entry): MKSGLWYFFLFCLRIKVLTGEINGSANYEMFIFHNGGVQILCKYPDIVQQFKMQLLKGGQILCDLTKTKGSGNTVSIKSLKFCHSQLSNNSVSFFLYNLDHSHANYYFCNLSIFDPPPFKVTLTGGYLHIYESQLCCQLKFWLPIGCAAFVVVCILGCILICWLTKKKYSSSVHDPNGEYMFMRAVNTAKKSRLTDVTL
# [25] = target: human CD28, full-length, expressed on transfected Expi293 cells (human) (UniProt P10747); assay: flow cytometry on CD28-expressing Expi293 cells
# CD112R (human) = CD112R (human) (UniProt Q6DKI7); assay: flow cytometry on CD112R-expressing cells
# Chain of CD112R (human) (Q6DKI7 whole entry): as the sequence (Q6DKI7 whole entry) above
# [26] = target: human ICOS, full-length, expressed on transfected Expi293 cells (human) (UniProt Q9Y6W8); assay: flow cytometry on ICOS-expressing Expi293 cells
# Chain of human ICOS, full-length, expressed on transfected Expi293 cells (human) (Q9Y6W8 21-199 limits assumed): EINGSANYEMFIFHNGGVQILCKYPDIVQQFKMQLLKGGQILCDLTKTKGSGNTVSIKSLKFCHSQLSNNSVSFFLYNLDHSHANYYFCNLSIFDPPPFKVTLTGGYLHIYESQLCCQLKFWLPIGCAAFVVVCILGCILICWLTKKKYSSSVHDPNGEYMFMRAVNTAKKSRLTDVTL
# [27] = target: human B7-H6, full-length, expressed on transfected Expi293 cells (human) (UniProt Q68D85); assay: flow cytometry on B7-H6-expressing Expi293 cells
# Chain of human B7-H6, full-length, expressed on transfected Expi293 cells (human) (Q68D85 25-454): as the sequence (Q68D85 25-454) above
# [28] = target: CD80 (Homo sapiens (Human)) (UniProt P33681); assay: flow cytometry, cells expressing CD80
# [29] = target: PD-1 (Homo sapiens (Human)) (UniProt Q15116); assay: flow cytometry, cells expressing PD-1
# Chain of PD-1 (Homo sapiens (Human)) (Q15116 21-288 limits assumed, form in doubt): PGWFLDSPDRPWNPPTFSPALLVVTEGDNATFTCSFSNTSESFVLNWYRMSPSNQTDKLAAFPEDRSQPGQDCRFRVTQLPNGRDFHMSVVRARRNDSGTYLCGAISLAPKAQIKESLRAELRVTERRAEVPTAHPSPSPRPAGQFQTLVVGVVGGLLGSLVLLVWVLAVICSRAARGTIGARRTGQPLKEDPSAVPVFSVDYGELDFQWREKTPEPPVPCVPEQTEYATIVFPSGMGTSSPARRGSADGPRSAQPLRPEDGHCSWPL
# [30] = target: PD-1 (Homo sapiens (Human)) (UniProt Q15116); assay: flow cytometry, cells expressing PD-1; vs WT PD-L1 (IgV + IgC) Fc
# [31] = target: CD80 (Homo sapiens (Human)) (UniProt P33681); assay: flow cytometry, cells expressing CD80; vs WT PD-L1 (IgV + IgC) Fc
# Target sequence in this assay (P33681 35-288 limits assumed): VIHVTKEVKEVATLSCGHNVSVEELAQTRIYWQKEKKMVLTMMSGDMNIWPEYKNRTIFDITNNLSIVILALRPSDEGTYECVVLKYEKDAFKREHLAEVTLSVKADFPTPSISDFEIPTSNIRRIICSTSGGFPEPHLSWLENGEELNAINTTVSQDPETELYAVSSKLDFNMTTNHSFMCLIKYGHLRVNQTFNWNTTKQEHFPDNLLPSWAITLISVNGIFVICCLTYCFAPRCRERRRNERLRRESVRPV
# PD-1-Fc = assay: Fortebio (BLI), PD-1-Fc
# [32] = target: PD-1 (Homo sapiens (Human)) (UniProt Q15116); assay: flow cytometry, Jurkat/PD-1 cells
# [33] = target: PD-1 (Homo sapiens (Human)) (UniProt Q15116); assay: flow cytometry, Jurkat/PD-1 cells; vs wildtype PD-L2 IgV-Fc
# Chain of PD-L1 (human) (Q9NZQ7 19-290 limits assumed): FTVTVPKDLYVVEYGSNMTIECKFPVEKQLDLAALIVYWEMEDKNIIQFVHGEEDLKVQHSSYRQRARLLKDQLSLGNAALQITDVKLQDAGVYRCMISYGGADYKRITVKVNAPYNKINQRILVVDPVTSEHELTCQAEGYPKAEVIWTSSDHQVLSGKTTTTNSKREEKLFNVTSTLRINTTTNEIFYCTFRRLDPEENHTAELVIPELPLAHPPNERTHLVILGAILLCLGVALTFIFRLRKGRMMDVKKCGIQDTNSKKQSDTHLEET
# Chain of Domain 1: CD80 WT / Domain 2: CD80 WT / Fc (Fc fusion) (chain): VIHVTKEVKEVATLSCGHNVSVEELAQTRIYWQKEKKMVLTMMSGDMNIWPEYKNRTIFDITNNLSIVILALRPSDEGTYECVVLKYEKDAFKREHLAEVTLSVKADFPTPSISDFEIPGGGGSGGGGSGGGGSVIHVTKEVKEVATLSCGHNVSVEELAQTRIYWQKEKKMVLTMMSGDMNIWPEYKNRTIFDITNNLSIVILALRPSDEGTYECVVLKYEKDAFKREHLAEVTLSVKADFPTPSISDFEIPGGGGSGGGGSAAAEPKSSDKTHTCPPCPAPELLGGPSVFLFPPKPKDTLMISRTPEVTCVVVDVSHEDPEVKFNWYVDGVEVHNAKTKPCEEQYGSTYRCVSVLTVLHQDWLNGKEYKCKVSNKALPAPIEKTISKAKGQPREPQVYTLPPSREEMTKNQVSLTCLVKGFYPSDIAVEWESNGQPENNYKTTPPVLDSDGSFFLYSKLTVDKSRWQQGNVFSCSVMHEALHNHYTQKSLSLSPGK
# Chain of CTLA4 (human) (P16410 36-223 limits assumed): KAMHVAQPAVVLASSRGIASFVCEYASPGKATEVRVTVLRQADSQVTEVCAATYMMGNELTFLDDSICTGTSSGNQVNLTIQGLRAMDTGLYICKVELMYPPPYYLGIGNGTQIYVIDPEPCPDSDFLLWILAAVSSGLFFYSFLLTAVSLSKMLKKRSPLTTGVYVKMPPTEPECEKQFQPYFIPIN
# Chain of CD155 Wild type IgV-Fc (P15151 24-139 limits assumed): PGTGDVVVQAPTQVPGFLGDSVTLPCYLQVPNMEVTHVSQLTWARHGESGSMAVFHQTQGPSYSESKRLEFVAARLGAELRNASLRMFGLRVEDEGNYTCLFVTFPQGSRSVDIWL
# Chain of WT CD112 IgV Fc fusion (Q92692 32-156 limits assumed): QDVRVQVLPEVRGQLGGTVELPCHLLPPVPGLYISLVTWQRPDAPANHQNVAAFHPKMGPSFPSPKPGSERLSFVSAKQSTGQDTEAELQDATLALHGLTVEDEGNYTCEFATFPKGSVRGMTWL
# Chain of Wildtype CD112-IgV Fc (Q92692 32-156 limits assumed): as above
substance,measurement,setting,value
CD80 IgV-Fc I30T/L70R (Fc fusion),Fold change to WT,CD28 (human) [1],0.1 fold
same,MFI at 66.6 nM,CD28 (human) [1],2600 MFI
same,Fold change to WT,CTLA4 (human) [2],0 fold
same,MFI at 66.6 nM,CTLA4 (human) [2],2230 MFI
same,MFI at 22.2 nM,PD-L1 (human) [3],5160 MFI
same,Ratio of CTLA4:CD28,CTLA4 (human) [4],0.9
"CD112 IgV R12W, Y33H, N47K, Q79R, S118Y Fc fusion (from UniProt Q92692 32-156)",MFI at 20 nM,[5],1120
same,MFI at 20 nM,[6],2640
"CD112 variant G82S, S118Y IgV-Fc (from UniProt Q92692 32-156) (Fc fusion)",MFI 100 nM,TIGIT (human) [7],4270 MFI
CD112 variant S118Y IgV-Fc fusion (from UniProt Q92692 32-156),MFI,[8],6540 MFI
"CD112 variant Y33H, A46T, Q79R, N106I, S118F IgV-Fc (from UniProt Q92692 32-156) (Fc fusion)",MFI at 100 nM,CD226 (human) [9],15600 MFI
"CD112 variant Y33H, S118T IgV-Fc (from UniProt Q92692 32-156) (Fc fusion)",MFI at 100 nM,CD96 [10],5000 MFI
same,MFI at 100 nM,CD226 (human) [9],17700 MFI
"CD155 P18L, L79V, F91S IgV-Fc (from UniProt P15151 24-139) (Fc fusion)",MFI,CD96 [11],3280
same,MFI,CD226 (human) [12],5140
same,MFI,TIGIT (human) [13],4070
"CD155 P18T, F91S, R94H IgV-Fc (from UniProt P15151 24-139) (Fc fusion)",MFI,CD96 [11],2510
same,MFI,CD226 (human) [12],3590
same,MFI,TIGIT (human) [13],2940
CD155 Wild type IgV-Fc (from UniProt P15151 24-139) (Fc fusion),MFI,CD96 [11],3080
same,MFI,CD226 (human) [12],3720
same,MFI,TIGIT (human) [13],2720
Domain 1: CD80 (R29H/Y31H/T41G/Y87N/E88G/K89E/D90N/A91G/P109S) / Domain 2: NKp30 (L30V/A60V/S64P/S86G) / Fc (Fc fusion),WT parental MFI ratio,CD28 (human) [14],0.32
same,WT parental MFI ratio,human B7-H6 (human) [15],0.5
same,MFI,CD28 (human) [16],4340
same,MFI,human B7-H6 (human) [17],55700
Domain 1: CD80 I67T/L70Q/A91G/T120S / Domain 2: CD80 E88D/K89R/D90K/A91G/F92Y/K93R / Fc (Fc fusion),WT parental MFI ratio,CD28 (human) [18],0.57
same,WT parental MFI ratio,PD-L1 (human) [19],0.16
same,MFI,CD28 (human) [16],938
same,MFI,PD-L1 (human) [20],995
Domain 1: CD80 WT / Domain 2: CD80 WT / Fc (Fc fusion),MFI,CD28 (human) [16],1630
same,MFI,CTLA4 (human) [21],4700
same,MFI,PD-L1 (human) [20],6300
Domain 1: CD80 WT / Domain 2: Nkp30 WT / Fc (Fc fusion),WT parental MFI ratio,human B7-H6 (human) [15],1
same,MFI,CD28 (human) [16],13700
same,MFI,human B7-H6 (human) [17],110000
Domain 1: NKp30 WT / Domain 2: CD80 WT / Fc (Fc fusion),WT parental MFI ratio,human B7-H6 (human) [22],1
same,MFI,CD28 (human) [16],7020
same,MFI,human B7-H6 (human) [17],88800
Domain 1: NKp30 WT / Domain 2: CD86 WT / Fc (Fc fusion),WT parental MFI ratio,human B7-H6 (human) [23],1
same,MFI,CD28 (human) [16],1690
same,MFI,human B7-H6 (human) [17],14100
ICOSL variant N52S/S54P ECD-Fc fusion,ICOS OD,[24],1.5 OD
ICOSL variant N52S/Y152H ECD-Fc fusion,ICOS OD,[24],0.85 OD
same,ICOS OD parental ratio (ratio to WT ICOSL ECD-Fc),[24],0.99
same,MFI,[25],68 MFI
same,MFI parental ratio (ratio to WT ICOSL ECD-Fc),[25],3.78
WT CD112 IgV Fc fusion (from UniProt Q92692 32-156),MFI at 20 nM,[5],1660
same,MFI at 20 nM,[6],2500
Wildtype CD112-IgV Fc (from UniProt Q92692 32-156) (Fc fusion),MFI at 100 nM,CD96 [10],8540 MFI
same,MFI at 100 nM,CD112R (human),4840 MFI
"stacked Fc fusion, Domain 1: ICOSL WT / Domain 2: Nkp30 WT",MFI,[25],7920 MFI
same,MFI,[26],70300 MFI
same,MFI,[27],118000 MFI
same,WT parental MFI ratio (ratio to WT stack),[27],1
"stacked Fc fusion, Domain 1: NKp30 WT / Domain 2: ICOSL WT",MFI,[25],6340 MFI
same,MFI,[27],64500 MFI
"variant PD-L1 ECD-Fc I36T, G52R, M97L, V112A, K144E, V175A, P198T (Fc fusion)",MFI at 20 nM,[28],149
same,MFI at 20 nM,[29],81
same,Fold Change Compared to WT PD-L1,[30],0 fold
"variant PD-L1 ECD-Fc I36T, I46V, D55G, M97L, K106E, K144E, T185A, R195G (Fc fusion)",MFI at 20 nM,[28],190
same,MFI at 20 nM,[29],69
same,Fold Change Compared to WT PD-L1,[30],0 fold
"variant PD-L1 ECD-Fc K57R, S99G, F189L (from UniProt Q9NZQ7 19-239) (Fc fusion)",MFI at 20 nM,[28],12900
same,Fold Change Compared to WT PD-L1,[31],96.3 fold
"variant PD-L2 IgV-Fc H15Q, R76G, I85F (SEQ ID NO 1505) (Fc fusion)",Fortebio binding to PD-1-Fc Response Units (Response Units),PD-1-Fc,-0.006
same,MFI at 50 nM,[32],1890
same,Fold increase over wildtype PD-L2 IgV-Fc,[33],0.19 fold
"variant PD-L2 IgV-Fc I13V, H15Q, T47A, Q82R, V89D (SEQ ID NO 1545) (Fc fusion)",Fortebio binding to PD-1-Fc Response Units (Response Units),PD-1-Fc,1.45
same,MFI at 50 nM,[32],61000
same,Fold increase over wildtype PD-L2 IgV-Fc,[33],6.2 fold
